# Results from patent US20230057012A1 (SCHOLAR ROCK, published 2023).
# B1: Ab42 Fab (Fab, V domains shown)
# VH: QVQLVESGGGVVQPGRSLRLSCAASGFTFRSYVMHWVRQAPGKGLEWVAVISHEGSLKYYADSVKGRFTISRDNSKNTLYLQMNSLRAEDTAVYYCARPRIAARRGGFGYWGQGTLVTVSS
# VL: NFMLTQPHSVSESPGKTVTISCTRSSGNIDNNYVQWYQQRPGSSPTTVIYEDNQRPSGVPDRFSGSIDSSSNSASLTISGLKTEDEADYYCQSYDYDTQGVVFGGGTKLTVL
# B2: Ab46 hIgG4 (antibody, V domains shown)
# VH: EVQLLESGGGLVQPGGSLRLSCAASGFTFADYAMTWVRQAPGKGLEWVSAISGSGAATYFADSVKGRFTISRDNSKNTLYLQMNSLRAEDTAVYYCARVSSGHWDYDYWGQGTLVTVSS
# VL: DIQLTQSPSSLSASVGDRVTITCRASQSISSYLNWYQQKPGKAPKLLIYAASGLESGVPSRFSGSGSGTDFTLTISSLQPEDFATYYCQQTYGVPLTFGGGTKVEIK
# notes: hIgG4 immunoglobulin; also called Ab46 (mAb)
# B3: Ab46 Fab (Fab, V domains shown)
# VH: B2 VH
# VL: B2 VL
# notes: Fab fragment
# Columns and labels:
# [1] = molecular target: T1, human LRRC33-proTGFβ1 complex (human, UniProt Q86YC3 19-650; P01137 30-390, limits assumed); test: SPR Biacore; Fab
# T1 construct: Purified recombinant, biotinylated antigen complex; also called hLRRC33-proTGFβ1; LLC
# T1 sequence (Q86YC3 19-650 limits assumed, chain 1 of 2): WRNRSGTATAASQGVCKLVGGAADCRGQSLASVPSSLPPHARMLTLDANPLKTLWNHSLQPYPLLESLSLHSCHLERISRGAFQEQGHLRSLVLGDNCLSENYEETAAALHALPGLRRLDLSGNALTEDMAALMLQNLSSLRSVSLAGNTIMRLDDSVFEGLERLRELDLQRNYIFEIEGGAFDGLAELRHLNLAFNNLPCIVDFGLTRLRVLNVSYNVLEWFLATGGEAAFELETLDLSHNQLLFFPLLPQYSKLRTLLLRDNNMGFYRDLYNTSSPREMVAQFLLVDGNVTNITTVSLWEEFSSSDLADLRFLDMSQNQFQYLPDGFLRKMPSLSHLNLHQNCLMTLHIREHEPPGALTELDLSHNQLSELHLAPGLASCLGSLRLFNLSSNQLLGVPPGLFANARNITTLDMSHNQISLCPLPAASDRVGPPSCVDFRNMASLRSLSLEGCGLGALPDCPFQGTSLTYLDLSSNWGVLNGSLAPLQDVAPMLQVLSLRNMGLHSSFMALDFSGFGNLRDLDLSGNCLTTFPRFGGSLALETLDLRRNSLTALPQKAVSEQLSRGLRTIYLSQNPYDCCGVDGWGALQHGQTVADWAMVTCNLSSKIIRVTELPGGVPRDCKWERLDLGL
# T1 sequence (P01137 30-390 limits assumed, chain 2 of 2): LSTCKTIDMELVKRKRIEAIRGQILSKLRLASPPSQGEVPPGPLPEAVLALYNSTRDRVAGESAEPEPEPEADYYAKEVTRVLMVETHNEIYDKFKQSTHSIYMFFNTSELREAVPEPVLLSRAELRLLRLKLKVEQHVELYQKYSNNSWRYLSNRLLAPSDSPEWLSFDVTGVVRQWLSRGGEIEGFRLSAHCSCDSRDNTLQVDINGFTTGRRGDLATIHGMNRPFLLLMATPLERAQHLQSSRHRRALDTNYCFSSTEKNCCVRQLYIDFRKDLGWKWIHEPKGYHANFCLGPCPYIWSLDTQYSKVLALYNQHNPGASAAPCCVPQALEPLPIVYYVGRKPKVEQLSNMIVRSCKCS
# Method: (§1) Surface plasmon resonance (SPR) was used to measure binding kinetics using a BIACORE® system. […] Experiments were carried out with eight types of LLCs, namely, hLTBP1-proTGFβ1, mLTBP1-proTGFβ1, hLTBP3-proTGFβ1, mLTBP3-proTGFβ1, hGARP-proTGFβ1, mGARP-proTGFβ1, hLRRC33-proTGFβ1 and mLRRC33-proTGFβ1.
# (§2) A BIACORE® system was employed to determine the monovalent binding affinity and the kinetic parameters for antigen binding of test antibodies. The binding kinetics were evaluated by surface plasmon resonance using Biacore 8K (GE Healthcare). A Biotin CAP sensor chip was used to capture the biotinylated antigens. […] Multi-cycle kinetics was employed where each analyte concentration was injected in a separate cycle and the sensor chip surface was regenerated after each cycle. All the assays were carried out in freshly prepared 1× HBS-EP+ buffer (10 mM HEPES, 150 mM NaCl, 3 mM EDTA, 0.05% Tween20, pH 7.4). Data for all the analyte concentrations for each interaction were fit globally to a 1:1 binding model to obtain the kinetic parameters. The Sensorgram for 0 nM analyte concentration was used as reference.
# [2] = molecular target: T2, murine LRRC33-proTGFβ1 complex (mouse; human, UniProt Q8BMT4 20-651, limits assumed); test: SPR Biacore; Fab
# T2 construct: As for m5; also called mLRRC33-proTGFβ1; LLC
# T2 sequence (Q8BMT4 20-651 limits assumed, chain 1 of 2): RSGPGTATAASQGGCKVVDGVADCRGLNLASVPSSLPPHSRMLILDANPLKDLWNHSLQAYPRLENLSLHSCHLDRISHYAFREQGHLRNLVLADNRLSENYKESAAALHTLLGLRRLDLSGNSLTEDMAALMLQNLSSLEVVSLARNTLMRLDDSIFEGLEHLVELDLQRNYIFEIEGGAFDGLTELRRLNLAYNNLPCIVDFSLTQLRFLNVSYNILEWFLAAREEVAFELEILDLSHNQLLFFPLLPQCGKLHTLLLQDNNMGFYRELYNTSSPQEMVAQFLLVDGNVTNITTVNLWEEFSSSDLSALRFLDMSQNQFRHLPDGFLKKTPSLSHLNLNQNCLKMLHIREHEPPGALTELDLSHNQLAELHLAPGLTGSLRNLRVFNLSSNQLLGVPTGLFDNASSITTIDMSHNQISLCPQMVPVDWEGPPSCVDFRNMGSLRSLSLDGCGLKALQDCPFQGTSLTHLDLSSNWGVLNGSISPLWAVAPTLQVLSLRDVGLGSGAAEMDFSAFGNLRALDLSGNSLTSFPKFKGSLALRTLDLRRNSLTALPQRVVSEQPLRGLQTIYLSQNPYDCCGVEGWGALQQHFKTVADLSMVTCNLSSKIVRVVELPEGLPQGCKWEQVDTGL
# T2 sequence (chain, as listed by the source limits assumed, chain 2 of 2): as the sequence (P01137 30-390 limits assumed, chain 2 of 2) above
# Method: as §1, §2
# [3] = molecular target: T3, murine LTBP3-proTGFβ1 complex (mouse; human, UniProt Q61810 41-1245; P01137 30-390, limits assumed); test: ELISA, purified hIgG4 titrated from about 0.002 to 100 nM, readout RLU, panel mLTBP3-TGFb1
# T3 construct: also called mLTBP3-proTGFβ1; LLC
# [4] = molecular target: T4, murine GARP-proTGFβ1 complex (mouse; human, UniProt G3XA59 18-628; P01137 30-390, limits assumed); test: ELISA, purified hIgG4 titrated from about 0.002 to 100 nM, readout RLU, panel mGARP-TGFb1
# T4 construct: As for m5; also called mGARP-proTGFβ1; LLC
# [5] = molecular target: T5, human LTBP3-proTGFβ1 complex (human, UniProt Q9NS15 44-1303; P01137 30-390, limits assumed); test: ELISA, purified hIgG4 titrated from about 0.002 to 100 nM, readout RLU, panel hLTBP3-TGFb1
# T5 construct: Purified recombinant, biotinylated antigen complex; also called hLTBP3-proTGFβ1; LLC
# T5 sequence (Q9NS15 44-1303 limits assumed, chain 1 of 2): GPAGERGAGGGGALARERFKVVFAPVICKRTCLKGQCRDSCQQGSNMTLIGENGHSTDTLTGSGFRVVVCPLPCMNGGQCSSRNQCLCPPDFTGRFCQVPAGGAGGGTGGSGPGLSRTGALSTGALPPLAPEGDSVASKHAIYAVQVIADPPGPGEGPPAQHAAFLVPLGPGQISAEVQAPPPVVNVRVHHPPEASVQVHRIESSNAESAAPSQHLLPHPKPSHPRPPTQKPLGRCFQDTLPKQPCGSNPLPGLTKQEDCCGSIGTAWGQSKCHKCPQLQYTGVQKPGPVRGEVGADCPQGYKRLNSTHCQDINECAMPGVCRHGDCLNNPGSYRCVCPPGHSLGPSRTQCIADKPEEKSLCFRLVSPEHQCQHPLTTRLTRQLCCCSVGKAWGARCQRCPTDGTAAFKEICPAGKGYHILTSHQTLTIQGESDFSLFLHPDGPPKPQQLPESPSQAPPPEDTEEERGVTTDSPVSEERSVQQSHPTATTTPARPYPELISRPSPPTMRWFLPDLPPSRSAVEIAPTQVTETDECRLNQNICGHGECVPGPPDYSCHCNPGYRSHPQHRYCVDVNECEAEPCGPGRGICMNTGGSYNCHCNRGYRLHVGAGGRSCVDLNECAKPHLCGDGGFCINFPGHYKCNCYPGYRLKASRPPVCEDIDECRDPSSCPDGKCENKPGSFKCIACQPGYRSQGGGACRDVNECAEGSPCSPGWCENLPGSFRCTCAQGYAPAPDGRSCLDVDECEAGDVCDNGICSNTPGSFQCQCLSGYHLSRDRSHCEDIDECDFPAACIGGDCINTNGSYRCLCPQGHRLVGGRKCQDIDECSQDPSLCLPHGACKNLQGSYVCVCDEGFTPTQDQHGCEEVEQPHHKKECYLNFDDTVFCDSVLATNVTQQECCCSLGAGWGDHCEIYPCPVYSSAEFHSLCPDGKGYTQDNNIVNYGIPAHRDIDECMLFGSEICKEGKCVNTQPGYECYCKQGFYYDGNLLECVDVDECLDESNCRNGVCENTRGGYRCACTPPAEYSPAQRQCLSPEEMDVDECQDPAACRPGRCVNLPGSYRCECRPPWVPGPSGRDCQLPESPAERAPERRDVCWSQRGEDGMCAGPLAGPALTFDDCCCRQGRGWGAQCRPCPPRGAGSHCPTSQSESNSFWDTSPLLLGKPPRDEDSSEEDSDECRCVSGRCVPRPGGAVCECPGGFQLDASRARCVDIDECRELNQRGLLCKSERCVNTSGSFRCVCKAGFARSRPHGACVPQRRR
# T5 sequence (P01137 30-390 limits assumed, chain 2 of 2): as the sequence (P01137 30-390 limits assumed, chain 2 of 2) above
# [6] = molecular target: T6, murine LTBP1-proTGFβ1 complex (mouse; human, UniProt Q8CG19 339-1712; P01137 30-390, limits assumed); test: ELISA, purified hIgG4 titrated from about 0.002 to 100 nM, readout RLU, panel mLTBP1-TGFb1
# T6 construct: also called mLTBP1-proTGFβ1; LLC
# [7] = molecular target: endogenous LTBP-proTGFβ1 of LN229 cells (human); test: cell-based or functional assay
# Chain of endogenous LTBP-proTGFβ1 of LN229 cells (human) (P01137 30-390): as the sequence (P01137 30-390 limits assumed, chain 2 of 2) above
# [8] = molecular target: T7, human GARP-proTGFβ1 complex (human, UniProt Q14392 18-627; P01137 30-390, limits assumed); test: ELISA, purified hIgG4 titrated from about 0.002 to 100 nM, readout RLU, panel hGARP-TGFb1
# T7 construct: Purified recombinant, biotinylated antigen complex; also called hGARP-proTGFβ1; LLC
# [9] = molecular target: T8, human LTBP1-proTGFβ1 complex (human, UniProt Q14766 347-1721; P01137 30-390, limits assumed); test: ELISA, purified hIgG4 titrated from about 0.002 to 100 nM, readout RLU, panel hLTBP1-TGFb1
# T8 construct: also called hLTBP1-proTGFβ1; large latent complex (LLC)
# T8 sequence (Q14766 347-1721 limits assumed, chain 1 of 2): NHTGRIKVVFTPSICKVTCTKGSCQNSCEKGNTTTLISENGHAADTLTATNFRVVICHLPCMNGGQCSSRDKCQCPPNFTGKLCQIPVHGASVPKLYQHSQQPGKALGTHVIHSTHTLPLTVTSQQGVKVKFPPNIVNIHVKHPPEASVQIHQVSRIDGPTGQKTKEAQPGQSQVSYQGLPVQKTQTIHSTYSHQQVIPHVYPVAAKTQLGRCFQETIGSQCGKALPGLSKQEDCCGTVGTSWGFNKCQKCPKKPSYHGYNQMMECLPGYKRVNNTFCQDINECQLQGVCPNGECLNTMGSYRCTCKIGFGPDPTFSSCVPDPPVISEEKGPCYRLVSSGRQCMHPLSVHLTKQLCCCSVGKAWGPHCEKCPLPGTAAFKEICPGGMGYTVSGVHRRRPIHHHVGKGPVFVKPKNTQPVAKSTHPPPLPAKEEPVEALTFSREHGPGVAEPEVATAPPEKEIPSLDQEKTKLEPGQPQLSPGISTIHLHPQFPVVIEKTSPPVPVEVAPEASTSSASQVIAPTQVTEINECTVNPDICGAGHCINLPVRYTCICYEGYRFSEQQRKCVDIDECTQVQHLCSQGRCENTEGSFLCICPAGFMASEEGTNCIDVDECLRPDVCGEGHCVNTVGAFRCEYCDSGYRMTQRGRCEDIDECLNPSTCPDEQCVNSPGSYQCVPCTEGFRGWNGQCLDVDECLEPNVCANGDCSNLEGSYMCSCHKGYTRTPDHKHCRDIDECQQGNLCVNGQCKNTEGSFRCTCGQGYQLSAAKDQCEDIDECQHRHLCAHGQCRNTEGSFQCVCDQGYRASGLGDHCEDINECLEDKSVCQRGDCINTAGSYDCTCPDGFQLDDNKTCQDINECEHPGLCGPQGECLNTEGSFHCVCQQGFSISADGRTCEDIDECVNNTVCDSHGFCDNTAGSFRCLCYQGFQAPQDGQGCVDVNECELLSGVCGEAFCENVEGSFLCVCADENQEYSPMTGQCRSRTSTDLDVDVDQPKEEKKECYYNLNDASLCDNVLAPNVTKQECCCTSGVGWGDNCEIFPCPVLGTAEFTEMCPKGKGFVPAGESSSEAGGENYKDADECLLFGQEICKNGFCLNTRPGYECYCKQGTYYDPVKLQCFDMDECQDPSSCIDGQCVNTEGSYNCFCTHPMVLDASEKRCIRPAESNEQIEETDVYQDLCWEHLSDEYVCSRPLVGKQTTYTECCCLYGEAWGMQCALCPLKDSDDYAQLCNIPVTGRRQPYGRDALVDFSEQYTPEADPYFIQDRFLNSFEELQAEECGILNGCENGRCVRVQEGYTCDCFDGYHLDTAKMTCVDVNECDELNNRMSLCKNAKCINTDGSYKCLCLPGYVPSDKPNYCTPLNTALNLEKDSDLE
# T8 sequence (P01137 30-390 limits assumed, chain 2 of 2): as the sequence (P01137 30-390 limits assumed, chain 2 of 2) above
# [10] = molecular target: T6, murine LTBP1-proTGFβ1 complex; test: SPR Biacore; Fab
# Method: as §1, §2
# [11] = molecular target: T7, human GARP-proTGFβ1 complex; test: SPR Biacore; Fab
# Method: as §1, §2
# [12] = molecular target: T3, murine LTBP3-proTGFβ1 complex; test: SPR Biacore; Fab
# Method: as §1, §2
# [13] = molecular target: T8, human LTBP1-proTGFβ1 complex; test: SPR Biacore; Fab
# Method: as §1, §2
# [14] = molecular target: T5, human LTBP3-proTGFβ1 complex; test: SPR Biacore; Fab
# Method: as §1, §2
# [15] = molecular target: T4, murine GARP-proTGFβ1 complex; test: SPR Biacore; Fab
# Method: as §1, §2
# [16] = molecular target: T8, human LTBP1-proTGFβ1 complex; test: SPR (Biacore), binding to Human LTBP1-ProTGFβ1, Fab at 0.625-10 nM
# Method: as §2
# Binding kinetics was evaluated by surface plasmon resonance using a BIACORE® 8K (GE) instrument. Biotinylated antigens were captured on a Biotin CAP chip and the Fab fragments of the antibodies were used as analytes. Sensorgrams for Fab binding at variable concentrations (0.6-10 nM) were globally fit to obtain the kinetic parameters.
binder,measurement,setting,value
B1,Fold difference (affinity relative to Ref),[1],81 fold
same,Kd,[1],0.123 nM
same,koff,[1],0.000123 s⁻¹
same,kon,[1],1e+06 M⁻¹ s⁻¹
same,Fold difference (affinity relative to Ref),[2],74 fold
same,Kd,[2],0.114 nM
same,koff,[2],0.000123 s⁻¹
same,kon,[2],1.08e+06 M⁻¹ s⁻¹
B2,EC50 (read off the curve),[3],~0.2 nM
same,EC50 (read off the curve),[4],~0.2 nM
same,EC50 (read off the curve),[5],~0.2 nM
same,EC50 (read off the curve),[6],~0.2 nM
same,mAb IC50 (nM); cell-based potency assay,[7],0.95 nM
same,EC50 (read off the curve),[8],~0.3 nM
same,EC50 (read off the curve),[9],~0.3 nM
B3,Fold difference (affinity relative to Ref),[1],118 fold
same,Fold difference (affinity relative to Ref),[10],123 fold
same,Fold difference (affinity relative to Ref),[11],53 fold
same,Fold difference (affinity relative to Ref),[12],91 fold
same,Fold difference (affinity relative to Ref),[2],95 fold
same,Fold difference (affinity relative to Ref),[13],134 fold
same,Fold difference (affinity relative to Ref),[14],72 fold
same,Fold difference (affinity relative to Ref),[15],69 fold
same,fAb IC50 (nM); cell-based potency assay,[7],0.723 nM
same,t1/2,[16],2.18 h
